Reference: patent US5767233A, “Soluble cleavable substrates of the hepatitis C virus protease” (Schering Corporation, priority 1995, dated 1998)
Entries after “also recorded” stand apart in the source; their conditions may differ.

How the values were obtained:
Assay type in all cases: biochemical, Hepatitis C virus (HCV)
[1] = tested on: NS3 protease (pBJ1022, NS3 catalytic domain); assay: Enhancement by 4A peptides of NS3 cleavage in the in vitro translation assay; conditions: no NS3 protease present
Method: (§1) The plasmid pTS102 encoding the substrate 5A/5B was linearized by digestion with EcoR I and was transcribed using T7 RNA polymerase in vitro. The RNA was translated in presence of ^35 S methionine in rabbit reticulocyte lysates according to the manufacturer's (Promega protocol to produce HCV specific protein. In a 20 μl total reaction mixture containing 10 mM Tris, pH 7.5, 1 mM DTT, 0.5 mM EDTA, and 10% glycerol was placed 2 to 8 μl of ^35 S methionine-labeled translated 5A/5B substrate. The reaction was started with the addition of 10 μl of HCV NS3 protease in solubilization buffer (50 mM Na Phosphate, pH 7.8, 0.3M NaCl, 0.2% Tween 20, 10 mM DTT or BME, 10% glycerol), and incubated at 30° C. for the specified time. Reactions were stopped by adding an equal volume of 2X Laemmli sample buffer (Enprotech Inc.) and heating at 100° C. for 3 minutes. Reaction products were separated by SDS PAGE electrophoresis; gels were fixed, dried and subjected to autoradiography.
(§2) NS4A is able to enhance the NS3 serine protease activity at NS5A/5B site in mammalian cells that transiently coexpress NS3, NS4A, and the various HCV non-structural polyprotein containing downstream cleavage sites. We have studied this enhancement activity in a well defined cell-free biochemical assay, using the partially purified E. coli-expressed pBJ1022 as a source of NS3 protease, and synthetic peptides containing various truncations of NS4A. In our first experiment we used a crude cell lysate of pBJ1022 as the enzyme and NS4A synthetic peptide truncated 33 mer from amino acid 22 to amino acid 54, the carboxy-terminal in vitro translation cleavage reaction.
(§3) To further characterize NS4A enhancement activity additional truncations were made to the NS4A sequence. Truncated peptides were evaluated for their activity in the in vitro translation assay using Ni^2+ chelate column-purified pBJ1022 (NS3 catalytic domain).

[2] = target: T1, NS3 protease (pBJ1022, NS3 catalytic domain) (Hepatitis C virus genotype 1a, UniProt P27958); assay: as above
T1 construct: made in house; host or cells: E. coli M15 [pREP4]
T1 sequence (P27958 1028-1209): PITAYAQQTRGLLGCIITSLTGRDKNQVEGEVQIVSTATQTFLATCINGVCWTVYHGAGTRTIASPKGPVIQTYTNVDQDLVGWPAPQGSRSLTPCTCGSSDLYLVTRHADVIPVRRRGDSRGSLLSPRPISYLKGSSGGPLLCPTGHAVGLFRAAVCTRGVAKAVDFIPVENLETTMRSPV
Method: as §1, §2, §3

[3] = tested on: in vitro translated 5A/5B substrate (40 kD protein containing the NS5A/5B cleavage site); assay: Analysis of NS3 protease activity by in vitro translation assay
From the text: (§4) To detect HCV NS3 protease activity in trans, we have expressed a 40 kD protein containing the NS5A/5B cleavage site in cell-free translation system and used that as the substrate for the enzyme. The substrate protein produces two protein products of apparent molecular weight 12.5 kD (NS 5A') and 27 kD (NS5B') upon cleavage by the HCV NS3 protease.
as §1

[4] = tested on: in vitro-translated 5A/5B substrate; assay: Analysis of refolded NS3 protease activity by in vitro translation assay; conditions: in the presence of 4A peptide (33 mer, 2 μM), 30° C., about one hour
From the text: as §4
as §1, with “(Promega)” for “(Promega”, “protease (SEQ ID NO: 5) with an approximately equimolar amount (2 μM) of the carboxyterminal 33 mer cofactor NS4A (SEQ ID NO: 29)” for “protease”, “about one hour.” for “the specified time.”, “Reaction products were separated by SDS PAGE electrophoresis; gels were fixed, dried and subjected to autoradiography.” left out

C-terminal 33 amino acid peptide of NS4A: NS4A synthetic peptide truncated 33 mer from amino acid 22 to amino acid 54 (strain HCV-BK) (CVVIVGRIVLSGKPAIIPDREVLYQEFDEMEEC)
cleavage of the substrate by the 4A peptide itself or with vector lysate [1]: did not cleave the substrate | enhancement of NS3 mediated cleavage activity ([2]; Ni2+ chelate column-purified pBJ1022 (NS3 catalytic domain)): able to enhance the NS3 mediated cleavage activity | enhancement of NS3 catalytic domain activity at the 5A/5B site ([2]; crude cell lysate of pBJ1022 as enzyme, 0.01 μM to 1.0 μM peptide, 30 minutes): able to enhance the activity of the NS3 catalytic domain in a dose dependent manner

B1: pNB182Δ4A: E. coli-expressed fusion of NS3 catalytic domain (182aa)-G-NS4A(4-54) with hydrophilic tail, named by its plasmid (protein)
chain: MRGSHHHHHHTDPPITAYAQQTRGLLGCIITSLTGRDKNQVEGEVQIVSTATQTFLATCINGVCWTVYHGAGTRTIASPKGPVIQMYTNVDQDLVGWPAPQGSRSLTPCTCGSSDLYLVTRHADVIPVRRRGDSRGSLLSPRPISYLKGSSGGPLLCPAGHAVGLFRAAVCTRGVTKAVDFIPVENLETTMRSPGVLVGGVLAALAAYCLSTGCVVIVGRIVLSGKPAIIPDREVLYQEFDEMEECRKKKRRKLN
time at which 5A and 5B cleavage products began to appear ([3]; 30° C., soluble lysate at 1 μl per 20 μl reaction volume): 1 min | amount of lysate at which cleavage reached a maximum ([3]; 30 minutes incubation): 1 µL | least amount of cell lysate at which 5A and 5B cleavage products were detected ([3]; 30 minutes incubation): 0.125 µL | activity of crude soluble lysate compared with pBJ1022 lysate ([3]; crude soluble lysate, 30 minutes incubation): much more active | cleavage of translated 5A/5B substrate by imidazole-eluted fractions ([3]; fractions from Ni-NTA column purification): all able to cleave the translated 5A/5B Substrate

B2: pBJ1022: E. coli-expressed His-tagged NS3 protease catalytic domain with hydrophilic tail, named by its plasmid (protein)
chain: MRGSHHHHHHTDPPITAYAQQTRGLLGCIITSLTGRDKNQVEGEVQIVSTATQTFLATCINGVCWTVYHGAGTRTIASPKGPVIQMYTNVDQDLVGWPAPQGSRSLTPCTCGSSDLYLVTRHADVIPVRRRGDSRGSLLSPRPISYLKGSSGGPLLCPAGHAVGLFRAAVCTRGVTKAVDFIPVENLETTMRSPVRKKKRR
HCV protease activity of imidazole-eluted fractions ([3]; POROS Ni2+ chelate purification, NS4A amino acids 22 to 54 peptide added at 1 μM): active | cleavage activity by the protease alone, without the 4A peptide ([3]; crude cell lysate, incubation time of 30 minutes): relatively low cleavage activity | cleavage of 5A/5B substrate by crude soluble lysate ([3]; two hour assay at 30° C., lysate at 3, 6 and 10 μl, SDS PAGE): able to cleave 5A/5B substrate in a dose responsive manner

B3: HisHIV183: histidine-tagged HCV NS3 protease without solubilizing motif, refolded from E. coli inclusion bodies (protein)
chain: MRGSHHHHHHGSHKARVLAEAMSHGTMAPITAYAQQTRGLLGCIITSLTGRDKNQVEGEVQIVSTATQTFLATCINGVCWTVYHGAGTRTIASPKGPVIQMYTNVDQDLVGWPAPQGSRSLTPCTCGSSDLYLVTRHADVIPVRRRGDSRGSLLSPRPISYLKGSSGGPLLCPAGHAVGLFRAAVCTRGVTKAVDFIPVENLETTMRSPV
trans-cleavage activity of the refolded protease on 5A/5B substrate [4]: active; also recorded: able to cleave 5A/5B substrate in a dose responsive manner
